The values below come from US20150037333A1 (NEXVET AUSTRALIA, published 2015).

One experiment has as its target canine TNF-alpha (canine, UniProt P51742 77-233). Description: cell-based or functional assay.
Experiment [1] concerns the target T1, complement C1q (from normal human serum) (human, UniProt P02745 23-245; P02746 28-253; P02747 29-245).
T1 construct: Native C1q in normal human serum, detected with a C1q reactive polyclonal antibody-HRP conjugate
Description: C1q binding ELISA; fusion protein on plates coated with canine TNF (4 µg/ml), human serum as source of complement. The procedure: The canine TNFR-HCB, canine TNFR-HCC and human TNFR-canine HCB fusion proteins were incubated with plates pre-coated with canine TNF (4 μg/ml). For comparison, a caninised monoclonal antibody (MAb, canine isotype HCB) with specificity to nerve growth factor (NGF) was incubated with plates coated with NGF. The plates were washed and incubated with normal or heat-killed human serum as a source of complement. Binding of complement C1q was detected using a C1q reactive polyclonal antibody-HRP conjugate.

Sequence of canine TNF-alpha (P51742 77-233 limits assumed): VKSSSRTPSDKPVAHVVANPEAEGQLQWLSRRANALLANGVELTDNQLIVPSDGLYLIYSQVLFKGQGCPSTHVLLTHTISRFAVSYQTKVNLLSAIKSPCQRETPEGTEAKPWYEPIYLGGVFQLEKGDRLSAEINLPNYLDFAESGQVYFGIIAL
T1 sequence (P02745 23-245 limits assumed, chain 1 of 3): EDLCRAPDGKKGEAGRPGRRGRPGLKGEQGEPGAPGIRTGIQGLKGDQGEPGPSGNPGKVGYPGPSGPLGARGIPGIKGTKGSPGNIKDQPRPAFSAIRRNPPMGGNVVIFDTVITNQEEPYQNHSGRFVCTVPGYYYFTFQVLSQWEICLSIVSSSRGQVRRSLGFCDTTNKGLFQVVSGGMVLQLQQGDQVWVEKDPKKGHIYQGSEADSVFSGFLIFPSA
T1 sequence (P02746 28-253 limits assumed, chain 2 of 3): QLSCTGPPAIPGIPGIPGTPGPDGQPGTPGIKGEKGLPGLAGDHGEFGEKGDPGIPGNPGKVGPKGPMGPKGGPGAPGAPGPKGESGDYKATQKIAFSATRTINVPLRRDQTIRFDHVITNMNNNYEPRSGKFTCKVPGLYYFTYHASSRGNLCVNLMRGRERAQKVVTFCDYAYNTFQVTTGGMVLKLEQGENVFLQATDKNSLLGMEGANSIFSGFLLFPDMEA
T1 sequence (P02747 29-245 limits assumed, chain 3 of 3): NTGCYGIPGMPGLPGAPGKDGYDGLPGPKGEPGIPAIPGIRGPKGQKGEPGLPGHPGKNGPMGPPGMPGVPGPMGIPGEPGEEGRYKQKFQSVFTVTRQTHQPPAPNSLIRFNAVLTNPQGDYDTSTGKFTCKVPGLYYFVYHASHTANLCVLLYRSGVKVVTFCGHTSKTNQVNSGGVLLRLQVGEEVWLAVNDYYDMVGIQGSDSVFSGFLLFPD

B1: canine TNFR-HCC (caTNFRp50:ca IgGHCC Fc), SEQ ID NO:8 (Fc fusion)
chain: LVPHPRNRVKRAILCPQGKYIHPQDDSICCTKCHKGTYLYNDCPGPGLDTDCRECENGTFTASENHLRQCLSCSKCRKEMNQVEISPCTVYRDTVCGCRKNQYRFYWSETLFQCNNCSLCLNGTVQISCQEKQNTICTCHAGFFLREHECVSCVNCKKNTECGKLCLPPVETVKVPQDPGSTAKECECKCNCNNCPCPGCGLLGGPSVFIFPPKPKDILVTARTPTVTCVVVDLDPENPEVQISWFVDSKQVQTANTQPREEQSNGTYRVVSVLPIGHQDWLSGKQFKCKVNNKALPSPIEEIISKTPGQAHQPNVYVLPPSRDEMSKNTVTLTCLVKDFFPPEIDVEWQSNGQQEPESKYRMTPPQLDEDGSYFLYSKLSVDKSRWQRGDTFICAVMHEALHNHYTQISLSHSPGK
notes: Expressed in CHO cells; also called caTNFrecp60-HCC; canine TNFR-HCC fusion protein
In the case of B1, the “inhibition of canine TNF-alpha bioactivity (1 ng/ml) in 293-HEK cells with NF-kB-EGFP reporter construct pTRH1; IC50” value with canine TNF-alpha was ~1 ng/ml. For the same molecule, the binding result in experiment [1] was “no binding”.

B2: canine TNFR-HCB (caTNFRp50:ca IgGHCB Fc), SEQ ID NO:7 (Fc fusion)
chain: LVPHPRNRVKRAILCPQGKYIHPQDDSICCTKCHKGTYLYNDCPGPGLDTDCRECENGTFTASENHLRQCLSCSKCRKEMNQVEISPCTVYRDTVCGCRKNQYRFYWSETLFQCNNCSLCLNGTVQISCQEKQNTICTCHAGFFLREHECVSCVNCKKNTECGKLCLPPVETVKVPQDPGSTPKRENGRVPRPPDCPKCPAPEMLGGPSVFIFPPKPKDTLLIARTPEVTCVVVDLDPEDPEVQISWFVDGKQMQTAKTQPREEQFNGTYRVVSVLPIGHQDWLKGKQFTCKVNNKALPSPIERTISKARGQAHQPSVYVLPPSREELSKNTVSLTCLIKDFYPPDIDVEWQSNGQQEPESKYRTTPPQLDEDGSYFLYSKLSVDKSRWQRGDTFICAVMHEALHNHYTQESLSHSPGK
notes: Expressed in CHO cells; also called caTNFrecp60-HCB; canine TNFR-HCB fusion protein
On to B2, for which the “inhibition of canine TNF-alpha bioactivity (1 ng/ml) in 293-HEK cells with NF-kB-EGFP reporter construct pTRH1; IC50” value in the experiment with canine TNF-alpha was ~1 ng/ml. Moreover, the binding result in experiment [1] is “no binding”.
